{"source": "patent US5770691A", "about": "“Discriminatory substrates for MMP hydrolysis” (Regents of the University of Minnesota, priority 1995, dated 1998)", "origin": "cited, not measured here", "molecules": {"B1": {"name": "Human α1 -antichymotrypain: protease inhibitor cleaved by MMP-3 at Ala360-Leu361 (protein, UniProt P01011 24-423, looked up)", "Alpha-1-antichymotrypsin": "HPNSPLDEENLTQENQDRGTHVDLGLASANVDFAFSLYKQLVLKAPDKNVIFSPLSISTALAFLSLGAHNTTLTEILKGLKFNLTETSEAEIHQSFQHLLRTLNQSSDELQLSMGNAMFVKEQLSLLDRFTEDAKRLYGSEAFATDFQDSAAAKKLINDYVKNGTRGKITDLIKDLDSQTMMVLVNYIFFKAKWEMPFDPQDTHQSRFYLSKKKWVMVPMMSLHHLTIPYFRDEELSCTVVELKYTGNASALFILPDQDKMEEVEAMLLPETLKRWRDSLEFREIGELYLPKFSISRDYNLNDILLQLGIEEAFTSKADLSGITGARNLAVSQVVHKAVLDVFEEGTEASAATAVKITLLSALVETRTIVRFNRPFLMIIVPTDTQNIFFMSKVTNPKQA"}}, "target": "MMP-3 (Homo sapiens, UniProt P08254)", "sequence (P08254 100-477, species assumed)": "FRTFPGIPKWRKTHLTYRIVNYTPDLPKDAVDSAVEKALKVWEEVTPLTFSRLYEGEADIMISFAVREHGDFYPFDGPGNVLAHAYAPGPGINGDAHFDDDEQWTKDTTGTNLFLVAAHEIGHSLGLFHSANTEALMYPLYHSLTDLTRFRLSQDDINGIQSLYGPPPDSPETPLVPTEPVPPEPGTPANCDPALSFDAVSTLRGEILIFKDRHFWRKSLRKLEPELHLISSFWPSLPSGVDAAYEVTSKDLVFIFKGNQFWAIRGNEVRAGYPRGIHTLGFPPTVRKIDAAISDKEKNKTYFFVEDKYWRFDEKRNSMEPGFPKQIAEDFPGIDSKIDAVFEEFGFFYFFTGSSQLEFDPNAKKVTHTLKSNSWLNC", "settings": "MMP-3 cleavage, determined at 37° C."}
{"molecule": "B1", "values": [{"measurement": "kcat /Kb", "result": "35,000 S^-1 M^-1"}]}
